# Test results from US20200181255A1 (Amgen, published 2020).
# Substitutions are numbered along the chain they refer to.
# T1: recombinant human IL-23 (human, UniProt Q9NPF7 20-189; P29460 23-328)
# T1 construct: also called rhuIL-23; recombinant human (rhu) IL-23
# T1 sequence 1: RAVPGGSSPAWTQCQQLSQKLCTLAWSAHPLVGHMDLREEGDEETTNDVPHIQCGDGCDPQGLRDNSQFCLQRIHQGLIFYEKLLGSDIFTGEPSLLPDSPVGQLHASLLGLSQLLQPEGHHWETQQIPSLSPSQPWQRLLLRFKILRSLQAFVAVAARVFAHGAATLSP
# T1 sequence 2: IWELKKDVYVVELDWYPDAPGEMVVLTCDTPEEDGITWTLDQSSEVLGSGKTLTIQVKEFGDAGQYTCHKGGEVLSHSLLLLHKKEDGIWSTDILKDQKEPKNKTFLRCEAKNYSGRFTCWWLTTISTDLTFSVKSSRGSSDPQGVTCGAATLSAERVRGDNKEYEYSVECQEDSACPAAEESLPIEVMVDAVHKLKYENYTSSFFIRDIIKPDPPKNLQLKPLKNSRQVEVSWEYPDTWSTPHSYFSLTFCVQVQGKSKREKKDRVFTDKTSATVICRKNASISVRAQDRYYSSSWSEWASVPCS
# T2: recombinant cynomolgous IL-23 (cynomolgous)
# T2 chain 1: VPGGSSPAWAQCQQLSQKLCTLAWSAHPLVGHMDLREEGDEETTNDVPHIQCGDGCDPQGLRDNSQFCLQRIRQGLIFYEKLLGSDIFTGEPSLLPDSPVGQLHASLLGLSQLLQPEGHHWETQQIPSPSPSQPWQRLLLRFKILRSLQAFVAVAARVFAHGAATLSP
# T2 chain 2: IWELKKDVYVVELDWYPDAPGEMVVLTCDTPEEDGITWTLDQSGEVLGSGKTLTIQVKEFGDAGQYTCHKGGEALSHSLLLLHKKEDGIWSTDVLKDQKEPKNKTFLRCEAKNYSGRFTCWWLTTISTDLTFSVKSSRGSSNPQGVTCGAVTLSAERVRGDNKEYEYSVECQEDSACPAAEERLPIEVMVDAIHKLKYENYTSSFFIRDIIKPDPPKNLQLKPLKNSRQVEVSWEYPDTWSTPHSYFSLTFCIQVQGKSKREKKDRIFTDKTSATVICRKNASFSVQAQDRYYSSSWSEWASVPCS
# T3: Native human IL-23 (human, UniProt Q9NPF7 20-189; P29460 23-328)
# T3 sequence 1: T1 sequence 1
# T3 sequence 2: T1 sequence 2
# B1: Antibody L (antibody, V domains shown)
# VH: QVQLVESGGGVVQPGRSLRLSCAASGFTFSSYAMHWVRQAPGKGLEWLSVISHDGSIKYYADSVKGRFTISRDNSKNTLYLQMNSLRAEDTAVYYCARERTTLSGSYFDYWGQGTLVTVSS
# VL: QAVLTQPSSLSASPGASASLTCTLRSGINVGTYRIYWYQQKPGSPPQYLLRYKSDSDKQQGSGVPSRFSGSKDASANAGILLISGLQSEDEADYYCMIWHSSASVFGGGTKLTVL
# notes: also called VH4/VL4
# B2: Antibody G (antibody, V domains shown)
# VH: QVQLQESGPRLVKPSETLSLTCTVSGDSISSYFWSWIRQPPGKGLEWLGYIYYSGSTNYNPSLKSRVTISIDTSKNQFSLKLSSVTAADTAVYYCTRDRGSYYGSDYWGQGTLVTVSS
# VL: DIQMTQSPSSVSASVGDRVTITCRAGQVISSWLAWYQQKPGKAPKLLIYAASSLQSGVPSRFSGSGSGTDFTLTISSLQPDDFATYYCQQATSFPLTFGGGTKVEIK
# notes: also called VH12/VL12
# B3: Antibody B (antibody, V domains shown)
# VH: QVQLQESGPGLVKPSQTLSLTCTVSGGSISSGGYYWSWIRQHPGKGLEWIGHIHYSGNTYYNPSLKSRVTISVDTSKNQFSLKLSSVTAADTAVYYCAKNRGFYYGMDVWGQGTTVTVSS
# VL: B2 VL with G26S, K45S, G66V, D81E, T92N, L96F, G100P, E105D, I106F
# notes: also called VH9/VL9
# B4: Antibody C (antibody, V domains shown)
# VH: B3 VH with S30N, H52Y, H54Y, N58S, T59S, K77Q, K99R, N100D, F103H
# VL: B2 VL with G26S, V28G, I29S, L33F, D81E, T92N, L96F, G100P, E105D
# notes: also called VH10/VL10
# B5: Antibody J (antibody, V domains shown)
# VH: B1 VH with A33G, L48V, S49A, H53F, I57L
# VL: B1 VL
# B6: Antibody E (antibody, V domains shown)
# VH: QVQLVESGGGVVQPGRSLRLSCAASGFTFSSYGMHWVRQAPGKGLEWVAVIWYDGSNEYYADSVKGRFTISRDNSKNTLYLQMNSLRAEDTAVYYCARDRGYTSSWYPDAFDIWGQGTMVTVSS
# VL: QSVLTQPPSVSGAPGQRVTISCTGSSSNTGAGYDVHWYQQVPGTAPKLLIYGSGNRPSGVPDRFSGSKSGTSASLAITGLQAEDEADYYCQSYDSSLSGWVFGGGTRLTVL
# B7: Antibody I (antibody, V domains shown)
# VH: QVQLQESGPGLVKPSETLSLTCTVSGGSISTYYWSWIRQPAGKGLEWIGLIYTSGSTNYNPSLKSRVTMSLDTSKNQFSLRLTSVTAADTAVYYCARDRGYYYGVDVWGQGTTVTVSS
# VL: B2 VL with M4L, Q6P, G26S, V28G, S30A, S31G, D81E, T92D, L96P
# B8: Antibody K (antibody, V domains shown)
# VH: EVQLVESGGGLVQPGGSLRLSCVVSGFTFSSFSMNWVRQAPGKGLEWVSYISSRSSTIYYADSVKGRFTISRDNAKNSLYLQMNSLRDEDTAVYYCARRIAAAGPWGYYYAMDVWGQGTTVTVSS
# VL: QPELTQPPSASASLGASVTLTCTLSSGYSDYKVDWYQLRPGKGPRFVMRVGTGGTVGSKGEGIPDRFSVLGSGLNRSLTIKNIQEEDESDYHCGADHGSGSNFVYVFGTGTKVTVL
# B9: Antibody N (antibody, V domains shown)
# VH: B8 VH with V23A, V24A, S31T, F32Y, R54S, I58R, Y60H
# VL: B8 VL with E3V, L38Q, T55I, S77Y, S101N
# B10: Antibody M (antibody, V domains shown)
# VH: B8 VH with V23A, V24A, F32Y, Y60I, P105G, W106F, G107H, M112L
# VL: B8 VL with E3V, S25N, L38Q, T55I, E61D, S77Y
# B11: Antibody A (antibody, V domains shown)
# VH: B3 VH with H52Y, H54Y, N58S, I71M
# VL: DIQLTQSPSSVSASVGDRVTITCRASQVISSWFAWYQQKPGKAPNLLIYAASSLQSGVPSRFSGSGSGTDFTLTISSLQPADFATYFCQQANSFPFTFGPGTKVDVK
# B12: Antibody H (antibody, V domains shown)
# VH: B3 VH with S37T, H52Y, H54Y, V69I, K83S, K99R, F103Y
# VL: B11 VL with L4M, V28G, I29F, S31G, F33L, N45K, A81E, F87Y, V106I
# Target: T1, recombinant human IL-23
# Experiment: KinExA
row,kon,Binder
1,3.34e+06 M⁻¹ s⁻¹,B1
2,400000 M⁻¹ s⁻¹,B2
3,1.17e+06 M⁻¹ s⁻¹,B3
4,1.36e+06 M⁻¹ s⁻¹,B4

# Target: T2, recombinant cynomolgous IL-23
# Experiment: cell-based or functional assay
row,"IC50 (pM), STAT-luciferase assay",Binder
1,56 pM,B5
2,47 pM,B1
3,188 pM,B6
4,421 pM,B2
5,650 pM,B7
6,61 pM,B8
7,238 pM,B9
8,56 pM,B10
9,379 pM,B11
10,130 pM,B3
11,1024 pM,B12
12,376 pM,B4

# Target: T3, Native human IL-23
# Experiment: cell-based or functional assay
row,"IC50 (pM), STAT-luciferase assay",Binder
1,83 pM,B5
2,113 pM,B1
3,140 pM,B6
4,156 pM,B2
5,208 pM,B7
6,71 pM,B8
7,361 pM,B9
8,34 pM,B10
9,114 pM,B11
10,45 pM,B3
11,192 pM,B12
12,107 pM,B4

# Target: T1, recombinant human IL-23
# Experiment: cell-based or functional assay
row,"IC50 (pM), STAT-luciferase assay",Binder
1,36 pM,B5
2,23 pM,B1
3,296 pM,B2
4,338 pM,B7
5,43 pM,B8
6,145 pM,B9
7,40 pM,B10
8,190 pM,B11
9,100 pM,B3
10,253 pM,B12
11,211 pM,B4

# Target: T2, recombinant cynomolgous IL-23
# Experiment: cell-based or functional assay
# Remark: another data set of the same source
row,"IC50 (pM), NK cell assay (IFNγ)",Binder
1,5 pM,B5
2,4 pM,B1
3,21 pM,B6
4,23 pM,B2
5,52 pM,B7
6,8 pM,B8
7,12 pM,B10
8,31 pM,B11
9,19 pM,B3
10,33 pM,B12
11,29 pM,B4

# Target: T3, Native human IL-23
# Experiment: cell-based or functional assay
# Remark: another data set of the same source
row,"IC50 (pM), NK cell assay (IFNγ)",Binder
1,158 pM,B6
2,152 pM,B2
3,85 pM,B3

# Target: T1, recombinant human IL-23
# Experiment: cell-based or functional assay
# Remark: another data set of the same source
row,"IC50 (pM), NK cell assay (IFNγ)",Binder
1,4 pM,B5
2,3 pM,B1
3,45 pM,B2
4,69 pM,B7
5,7 pM,B8
6,8 pM,B10
7,42 pM,B11
8,48 pM,B3
9,29 pM,B12
10,32 pM,B4

# Target: T2, recombinant cynomolgous IL-23
# Experiment: cell-based or functional assay
# Remark: another data set of the same source
row,"IC50 (pM), IFNγ human whole blood assay",Binder
1,54 pM,B6
2,93 pM,B2
3,161 pM,B3
4,186 pM,B4

# Target: T1, recombinant human IL-23
# Experiment: cell-based or functional assay
# Remark: another data set of the same source
row,"IC50 (pM), IFNγ human whole blood assay",Binder
1,53 pM,B2
2,117 pM,B3
3,97 pM,B4

# Target: T2, recombinant cynomolgous IL-23
# Experiment: cell-based or functional assay
# Remark: another data set of the same source
row,"IC50 (pM), IL-22 human whole blood assay",Binder
1,56 pM,B6
2,66 pM,B2
3,113 pM,B3

# Target: T1, recombinant human IL-23
# Experiment: cell-based or functional assay
# Remark: another data set of the same source
row,"IC50 (pM), IL-22 human whole blood assay",Binder
1,83 pM,B2
2,117 pM,B3

# Target: T1, recombinant human IL-23
# Experiment: KinExA, derived from KD=Koff/Kon
row,koff,Binder
1,3.7e-06 s⁻¹,B1
2,8.1e-07 s⁻¹,B2
3,4.7e-06 s⁻¹,B3
4,4.1e-06 s⁻¹,B4

# Target: T1, recombinant human IL-23
# Experiment: KinExA, solution equilibrium, rhuIL-23-coated beads
# Experimental: Normal human serum (NHS)-activated Sepharose 4 fast flow beads (Amersham Biosciences, part of GE Healthcare, Uppsala, Sweden), are pre-coated with rhuIL-23 and blocked with 1 m Tris buffer with 10 mg/mL BSA. 50 pM of IL-23 antibody is incubated with rhuIL-23 (12 points of 1:2 dilutions starting from 800 pM) at room temperature for 72 hours before it is run through the rhuIL-23-coated Sepharose beads. The amount of the bead-bound antibody was quantified by fluorescent (Cy5) labeled goat anti-human-Fc antibody (Jackson Immuno Research, West Grove, Pa.). The binding signal is proportional to the amount of free antibody at equilibrium.
row,Kd,Binder
1,1.08 pM,B1
2,2 pM,B2
3,3.99 pM,B3
4,2.56 pM,B4
